Reference: article PMC10326918

Target: Concanavalin A (Canavalia ensiformis)
Experiment: native MS; static nESI under native-like conditions, 200 mM ammonium acetate pH 6.8, 5 uM monomer; tetramer [M + 21H]21+ ions (m/z 4901) selected with the quadrupole, then 193 nm UVPD or HCD, read by Orbitrap or orthogonal TOF/TPX3; tetramer dissociates to monomers and trimers

- stoichiometry N: 4
Substance: Concanavalin A (natural protein)
